The text below walks through data of patent publication US20180245121A1.

Assay [1] concerns the target FKBP-GDH(155-454AA) (Acinetobacter calcoaceticus) (UniProt P62942). In words: cell-based or functional assay.
For assay [2] the target is unchanged. Put plainly: self-reconstitution of split GDH fragments without ligand; method not described (GDH activity assay implied).

Chain of UniProt P62942 (P62942 2-108, tags or fused parts left off): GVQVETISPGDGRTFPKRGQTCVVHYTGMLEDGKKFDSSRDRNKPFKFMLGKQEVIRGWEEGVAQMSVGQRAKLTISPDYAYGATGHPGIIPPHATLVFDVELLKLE

As to “GDH(1-153AA)-FRB (from UniProt P42345 2021-2113)”, the GDH activity; observed rates on rapamycin titration fitted to a quadratic equation in assay [1] is 11 nM. In addition, the Kd in assay [2] was 50 to 100 nM.

One may read the Kd as the concentration at which binding is half-saturated.
